This note sets out measurements from paper PMC6829469, “A Genome-Centric Approach Reveals a Novel Glycosyltransferase from the GA A07 Strain of Bacillus thuringiensis Responsible for Catalyzing 15-O-Glycosylation of Ganoderic Acid A” (International Journal of Molecular Sciences, 2019).

In data set [1] the test system is [H][C@@]12C[C@H](O)C3=C(C(=O)C[C@]4(C)[C@@]([H])([C@H](C)CC(=O)C[C@@H](C)C(=O)O)C[C@H](O)[C@@]34C)[C@@]1(C)CCC(=O)C2(C)C. Nature of the data set: purified protein. The following applies: 10 mM UDP-glucose, 10 mM MgCl2, 50 mM Tris pH 8.0, 40 °C.
Substrate in data set [2]: [H][C@@]12C[C@H](O)C3=C(C(=O)C[C@]4(C)[C@@]([H])([C@H](C)CC(=O)C[C@@H](C)C(=O)O)C[C@H](O)[C@@]34C)[C@@]1(C)CCC(=O)C2(C)C
Put plainly: UPLC of GAA-15-O-beta-glucoside formation, Michaelis-Menten nonlinear fit. Format: biochemical, Bacillus spizizenii. The conditions noted are these: 10 mM UDP-glucose, 10 mM MgCl2, 50 mM Tris pH 8.0, 40 °C. An excerpt: UPLC of GAA-15-O-beta-glucoside formation, Michaelis-Menten nonlinear fit on BsUGT398

As for BsUGT489 (Bacillus spizizenii), in data set [1], the Michaelis constant (Km) is 793.96 ± 124.09 µM, the kcat stood at 0.934 ± 0.0626 s⁻¹ and the kcat/Km turned out to be 1180 ± 200 M⁻¹ s⁻¹.

B1: BsUGT398 (Bacillus spizizenii str. W23) (protein)
chain: MKTVLILNFPAEGHVNPTLGITKAFADRGYDVHYISTEKYKERLEAVGATVHLHQDLLRTTPINIASPNGILDFLKIHIKTSLDILHIVKELSKSIQFDFVYYDKFGAGELVRDYLNIPGISSSASFLFGEEHLKILPLHPDSEVPLQLDKQCEDLLLEMKQNYGVSPENMVQFMNNKGELNVVYTSRYFQPESHRFGDEFLFIGPSFPKRAEKTDFPTDKLKDEKVIYISMGTVLDETEEFFNLCIDAFSDVKGKVVIAAGEKADLTKLKQAPENFIIASYVPQLEVLEQSDVFITHGGMNSVNEGIHFNVPLVVMPHDKDQPMVAQRLTELQAGYTVSKDHVTAQSLKHAVEEVLNNDRYKEGIQKINRSFQDCMNMEEVMERIDQFIEQRK
notes: recombinant purified, obtained from the authors' previous study; GT1 family
As for B1, in data set [2], the Km was 90.71 ± 14.86 µM, the catalytic constant (kcat) was determined as 0.14 ± 0.0051 s⁻¹ and the catalytic efficiency (kcat/Km) was determined as 1540 ± 259 M⁻¹ s⁻¹.
